Experimental findings from patent US20210087238A1, “CELL PENETRATING PEPTIDES AND RELATED COMPOSITIONS AND METHODS” (Phylogica Limited, priority 2017, published 2021) are described below.

This assay concerns the target MDM2 (UniProt Q00987). The assay is described as follows: cell-based or functional assay.
UniProt Q00987, sequence (Q00987 whole entry): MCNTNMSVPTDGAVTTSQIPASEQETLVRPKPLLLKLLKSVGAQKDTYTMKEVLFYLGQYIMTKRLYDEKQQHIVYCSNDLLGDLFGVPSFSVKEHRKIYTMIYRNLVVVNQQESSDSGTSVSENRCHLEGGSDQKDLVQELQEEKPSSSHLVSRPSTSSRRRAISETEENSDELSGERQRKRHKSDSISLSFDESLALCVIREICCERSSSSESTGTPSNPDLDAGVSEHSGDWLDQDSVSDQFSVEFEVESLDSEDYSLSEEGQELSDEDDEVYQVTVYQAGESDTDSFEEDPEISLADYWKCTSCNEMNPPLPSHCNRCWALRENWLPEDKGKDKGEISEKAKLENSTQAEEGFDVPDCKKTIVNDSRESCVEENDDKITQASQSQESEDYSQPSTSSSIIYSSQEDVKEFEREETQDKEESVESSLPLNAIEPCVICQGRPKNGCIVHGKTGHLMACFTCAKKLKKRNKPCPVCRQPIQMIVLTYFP

TAT_^DPMIα (peptide) yielded an IC50, viability of T47D cells after 48 h (resazurin reduction) of 36.6 µM.
